Experimental data from publication PMC9651861 (Science Advances, 2022).

Molecular target: T1, Trimeric His-Tagged SARS-CoV-2 Spike Glycoprotein, labelled with Alexa Fluor 647 (SARS-CoV-2, original (Wuhan-Hu-1) strain, UniProt P0DTC2, Alexa Fluor 647 (N-hydroxysuccinimide ester), estimated 13:1 dye to protein)
T1 construct: also called full trimeric spike protein; spike protein
Assay: MST
Conditions: both partners purified

B1: DesAb-HSA-P2 (VHH)
VHH: EVQLEESGGGLVQPGGSLRLSCAASGFNIKDTYIGWVRQAPGKGEEWVASIYPTSGYTRYADSVKGRFTISADTSKNTAYLQMNSLRAEDTAVYYCAAGSAQAGNAEEAEEEFDYWGQGTLVTVSS
binding result: no binding (tested: 4 μM)
